The results in this text go back to paper doi:10.1101/2020.12.03.410779.

In the experiment the target is human Retromer complex (Vps35-Vps29-Vps26A) (human) (UniProt Q96QK1). Briefly: ITC. Background: ITC needs no label: the signal is the heat of the interaction.

“TBC domain of human TBC1D5 (from UniProt Q92609 1-795) (domain or fragment)”: the Kd turned out to be 370 nM.

The term Kd denotes the constant that tells how readily two partners part at equilibrium.
